In US12281161B2, “Polypeptides and uses thereof” (TRUSTEES OF BOSTON UNIVERSITY, priority 2021, dated 2025):
Read-outs that look alike come from different tables or passages of the source. Primed or numbered codes have the meaning given here. Where no end group is shown, it is not given here. [ ]: non-standard residue; d: D form. DBCO‑MMAE = DBCO-PEG3-glutamic acid-valine-citrulline-p-aminobenzylcarbamate-MMAE (DBCO-PEG3-EVC-PABC-MMAE); Lys(N3)′ = its azide, alkyne or alkene has reacted where a group follows in round brackets

Experiments:
NCI-H358 = assay: in vitro cytotoxicity (MTT); assay type: cell-based, human
Description: (§1) We utilized two different incubation methods.
(§2) We then incubated the human cell lines with ADC, and equivalent concentrations of MMAE and native Ab for both 48 hours and 72 hours, the results of which can be seen in FIG. 13A-13E. We expected the results to correlate with the GPR87 expression we observed by flow cytometry. For the normal cell lines, this was the case. As detailed in FIG. 14, the line that was most sensitive to the ADC were the NHLFs, followed by the BEAS-2Bs, and the line with the lowest GPR87 expression, the HUVECs, had the highest IC50 after 72 hours. However, both the NSCLC cell lines had relatively high IC50s given the GPR87 expression status of these lines.
(§3) In comparison, NCI-H358 and NCI-H520 see approximately a 4-fold or 2-fold decrease in IC50, respectively, between the two time points. On the other hand, the NCI-H520 line has almost a 10-fold increase in MMAE IC50 at 72 hours compared to 48 hours. The results are likely because the cell lines are different sizes and morphologies and therefore are at different confluencies when plated at the same number of cells per well and are therefore likely to be in different parts of their log growth phase during treatment. For example, the NSCLC lines are typically at very low confluency at a plating density of 5,000 cells per well and may not reach log phase growth until later in the assay. As MMAE affects actively dividing cells, this will affect the results of the assay. While 72 hours was not the optimized end time point for all five cell lines, in order to have a standardized cell plating density, and therefore same ADC:cell ratio, going past 72 hours for some of the cell lines would lead to confluency or death in untreated control cells, which would also confound results. Thus, we incubated the two NSCLC lines for longer periods of time to allow the control cells to become more confluent by the assay endpoint, and to see how this would affect the ADC IC50.
(§4) Standard cytotoxicity assays, like the MTT assays ran here, measure or rather, approximate the cell number at an end point and compare to control untreated cells. Effectively what is measured is a comparison between growth rates. When comparing the efficacy of a drug, particularly a mitotic inhibitor, among different cell lines, division rate differences due to biology, media additives, or seeding density can have a dramatic effect on the IC50, an issue brought up by Hafner et al. They reported with both modeling and in vitro assays how using the IC50 as a metric can actually mask the true mechanism of a drug, for example the microtubule inhibitor paclitaxel. […] GR values indicate whether a drug inhibits growth (0<GR<1), is cytostatic (GR=0) or cytotoxic (GR<0). To calculate this parameter, one needs cell count data for at least two different time points and compares experimental growth rates to the growth rate of control cells. […] Consequently, we reviewed the data at our two time points to perform a similar analysis. We plated at the same seeding density for both the 48 and 72 hour time points. As MTT is an endpoint assay rather than a kinetic assay like MTS, we can use MTT signal as a proxy for cell count. […] Therefore, we excluded this cell line from our analysis. We are technically assessing the effect the ADC or equivalent MMAE has on the growth rate of cells at 60 hours, as we are measuring at t=x±delta t, with x being 60 and delta t being 12 hours. Ideally, we would assess an earlier time point or even multiple time points. […] (FIGS. 19A-19D). Conversely, both NCI-H520 and NCI-H358 are cytotoxic (GR<0) at higher concentrations of ADC at this time point. […] While the GR50 data is still not in agreement with GPR87 expression, it does indicate that this type of analysis at other, earlier, time points is useful in assessing the dynamics of ADC and MMAE cytotoxicity in these cell lines.

GPR87 antigen = GPR87 antigen (Homo sapiens, UniProt Q9BY21); assay: custom ELISA binding analysis of αGPR87 antibody, Ab-CCK and ADC
Description: With the CCE-MMAE peptide successfully synthesized and previous optimization of the antibody loading process with the AFC, it was facile to translate the method to formulating the ADC. Using a similar custom ELISA as before, but with a secondary antibody recognizing mouse antibody, it was contemplated whether the loading of CCE-MMAE, the 50° C. incubation, or even the expression of the peptide tails affected the binding affinity of the antibody. (FIG. 8C) What was found was initially surprising, which was that by adding the peptide tails onto the antibody, the Kd was affected. […] However, if it was taken into consideration the SEC data showing the larger aggregates formed by these antibodies, the results are more consistent. The original analysis was done by using the wt/vol concentration of the antibodies. However, if there are larger aggregates forming such as hexamers of Ab-CCK or hexamers, trimers, and monomers of the ADC, then equivalent wt/vol concentrations will vary by molarity. If it was assumed the Ab-CCK exists as a hexamer and therefore at the same wt/vol concentration as the native Ab is at one sixth the molar concentration, the binding data can be reanalyzed with these adjusted molarities. Similarly, it can be assumed the ADC is forming on average trimers and adjust the molar concentration by one third accordingly. The resulting curves are similar, with the Ab, Ab-CCK, and ADC having Kds of approximately 0.43, 0.46, and 0.41 nM, respectively.

NIH-3T3 = assay: in vitro cytotoxicity, negative control line; details: NIH-3T3, 10 μg/ml ADC, 72 hours
Description: We incubated NIH-3T3s with up to 10 μg/ml of ADC (67 nM, equivalent to 96 ng/ml of MMAE) along with the native antibody and MMAE alone at equivalent concentrations.

NCI-H520 = assay: in vitro cytotoxicity (MTT); assay type: cell-based, human
Description: as §1, §2, §3, §4

[1] = tested on: NCI-H358, NCI-H520, NHLF, BEAS-2B, HUVEC; assay: in vitro cytotoxicity, comparison of ADC and MMAE over the five cell lines; assay type: cell-based, human; details: 48 and 72 hours
Description: as §2
We investigated analyzing other parameters, such as the area under the curve (AUC) for the five cell lines as we noted that the hill slope was variable between different cell lines and between ADC and MMAE treatments. By assessing the AUC, we could interpret the total cytotoxicity of the treatment over all concentrations tested. Rather than the large (>100) fold differences in ADC and MMAE IC50s observed in FIG. 14, FIG. 16 indicates the difference in toxicity between the two are less pronounced, on the order of 1-3-fold difference. However, comparing the toxicity of the ADC across the cell lines, the relationships, or lack thereof, between toxicity and GPR87 expression remain largely the same.

NHLF = assay: in vitro cytotoxicity (MTT); assay type: cell-based, human
Description: as §1, §2, §4

BEAS-2B = assay: in vitro cytotoxicity (MTT); assay type: cell-based, human
Description: as §1, §2, §4

[2] = Ab-CCK assumed hexamer, ADC assumed trimer (from SEC), read-out: Kd, reanalyzed with adjusted molarities
[3] = ELISA, analysed by wt/vol concentration, read-out: Kd

GPR87 antigen, sequence (Q9BY21 whole entry): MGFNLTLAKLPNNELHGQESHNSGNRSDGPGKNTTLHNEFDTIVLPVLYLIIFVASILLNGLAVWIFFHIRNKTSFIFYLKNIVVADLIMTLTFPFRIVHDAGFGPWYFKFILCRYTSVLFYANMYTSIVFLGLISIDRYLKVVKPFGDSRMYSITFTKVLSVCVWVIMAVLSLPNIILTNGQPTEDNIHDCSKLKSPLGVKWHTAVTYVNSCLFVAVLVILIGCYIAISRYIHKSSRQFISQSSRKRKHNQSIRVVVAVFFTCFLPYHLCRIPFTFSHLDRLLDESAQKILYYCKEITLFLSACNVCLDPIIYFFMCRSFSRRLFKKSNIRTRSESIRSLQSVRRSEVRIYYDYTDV

CCE-MMAE: CCE peptide (SEQ ID NO: 3) conjugated at azido lysine with DBCO-MMAE (MKLEEIVSELEEIVSELEEIV[Lys(N3)′](DBCO‑MMAE)ELEEIVYEVGER)
toxicity (NCI-H358; NCI-H358, 72 hours, concentrations equivalent to ADC): Toxicity was only observed at the highest concentration

B1: Ab: native murine αhGPR87 IgG1 antibody (331CL), plasmids from Creative Biolabs (antibody)
heavy: EVQLQQSGPDLVKPGASMKISCKASGYSFTDYTMHWVKQSHGKNFEWIGLINPYNDGTTYNQKFKGKATLTVDKSSSTAYMELLSLTSEDSAVYYCASLDYWGQGTSVTVSSAKTTPPSVYPLAPGSAAQTNSMVTLGCLVKGYFPEPVTVTWNSGSLSSGVHTFPAVLQSDLYTLSSSVTVPSSTWPSETVTCNVAHPASSTKVDKKIVPRDCGCKPCICTVPEVSSVFIFPPKPKDVLTITLTPKVTCVVVDISKDDPEVQFSWFVDDVEVHTAQTQPREEQFNSTFRSVSELPIMHQDWLNGKEFKCRVNSAAFPAPIEKTISKTKGRPKAPQVYTIPPPKEQMAKDKVSLTCMITDFFPEDITVEWQWNGQPAENYKNTQPIMDTDGSYFVYSKLNVQKSNWEAGNTFTCSVLHEGLHNHHTEKSLSHSPGK
light: DVVMTQTPLSLPVSLGDQASISCRSSQSLVHSSGNTYLHWYLQKPGQSPKLLIYKVSNRFSGVPDRFSGSGSGTDFTLKISRVEAEDLGVYFCSQSTHVPYTFGGGTKLEIKRADAAPTVSIFPPSSEQLTSGGASVVCFLNNFYPKDINVKWKIDGSERQNGVLNSWTDQDSKDSTYSMSSTLTLTKDEYERHNSYTCEATHKTSTSPIVKSFNRNEC
Kd (GPR87 antigen; [2]): ~0.43 nM | Kd (GPR87 antigen; [3]): 0.4 nM

B2: Ab-CCK: αGPR87 antibody 331CL with CCK peptide on the heavy chain C termini via a pentaglycine linker (antibody)
heavy: EVQLQQSGPDLVKPGASMKISCKASGYSFTDYTMHWVKQSHGKNFEWIGLINPYNDGTTYNQKFKGKATLTVDKSSSTAYMELLSLTSEDSAVYYCASLDYWGQGTSVTVSSAKTTPPSVYPLAPGSAAQTNSMVTLGCLVKGYFPEPVTVTWNSGSLSSGVHTFPAVLQSDLYTLSSSVTVPSSTWPSETVTCNVAHPASSTKVDKKIVPRDCGCKPCICTVPEVSSVFIFPPKPKDVLTITLTPKVTCVVVDISKDDPEVQFSWFVDDVEVHTAQTQPREEQFNSTFRSVSELPIMHQDWLNGKEFKCRVNSAAFPAPIEKTISKTKGRPKAPQVYTIPPPKEQMAKDKVSLTCMITDFFPEDITVEWQWNGQPAENYKNTQPIMDTDGSYFVYSKLNVQKSNWEAGNTFTCSVLHEGLHNHHTEKSLSHSPGKGGGGGMKLKKIKSVLKKIKSVLKKIKSVLKKIKSVVGER
light: DVVMTQTPLSLPVSLGDQASISCRSSQSLVHSSGNTYLHWYLQKPGQSPKLLIYKVSNRFSGVPDRFSGSGSGTDFTLKISRVEAEDLGVYFCSQSTHVPYTFGGGTKLEIKRADAAPTVSIFPPSSEQLTSGGASVVCFLNNFYPKDINVKWKIDGSERQNGVLNSWTDQDSKDSTYSMSSTLTLTKDEYERHNSYTCEATHKTSTSPIVKSFNRNEC
Kd (GPR87 antigen; [2]): ~0.46 nM | Kd (GPR87 antigen; [3]): 2.8 nM

B3: ADC (conjugate)
heavy: EVQLQQSGPDLVKPGASMKISCKASGYSFTDYTMHWVKQSHGKNFEWIGLINPYNDGTTYNQKFKGKATLTVDKSSSTAYMELLSLTSEDSAVYYCASLDYWGQGTSVTVSSAKTTPPSVYPLAPGSAAQTNSMVTLGCLVKGYFPEPVTVTWNSGSLSSGVHTFPAVLQSDLYTLSSSVTVPSSTWPSETVTCNVAHPASSTKVDKKIVPRDCGCKPCICTVPEVSSVFIFPPKPKDVLTITLTPKVTCVVVDISKDDPEVQFSWFVDDVEVHTAQTQPREEQFNSTFRSVSELPIMHQDWLNGKEFKCRVNSAAFPAPIEKTISKTKGRPKAPQVYTIPPPKEQMAKDKVSLTCMITDFFPEDITVEWQWNGQPAENYKNTQPIMDTDGSYFVYSKLNVQKSNWEAGNTFTCSVLHEGLHNHHTEKSLSHSPGKGGGGGMKLKKIKSVLKKIKSVLKKIKSVLKKIKSVVGER
light: DVVMTQTPLSLPVSLGDQASISCRSSQSLVHSSGNTYLHWYLQKPGQSPKLLIYKVSNRFSGVPDRFSGSGSGTDFTLKISRVEAEDLGVYFCSQSTHVPYTFGGGTKLEIKRADAAPTVSIFPPSSEQLTSGGASVVCFLNNFYPKDINVKWKIDGSERQNGVLNSWTDQDSKDSTYSMSSTLTLTKDEYERHNSYTCEATHKTSTSPIVKSFNRNEC
peptide: MKLEEIVSELEEIVSELEEIVKELEEIVYEVGER
Kd (GPR87 antigen; [2]): ~0.41 nM | Kd (GPR87 antigen; [3]): ~1.3 nM | viability (NIH-3T3): ~76% | decrease in IC50 between 48 and 72 hours (NCI-H520; NCI-H520): ~2 fold | IC50 (NCI-H520; NCI-H520, ADC prepared at 50° C.): 3 nM | IC50 (NCI-H520; NCI-H520, ADC prepared at RT): 4.9 nM | normalized growth rate inhibition (GR) (NCI-H520; NCI-H520, higher concentrations of ADC, 60 hours): < 0 | IC50, start of time course (NCI-H520; NCI-H520, incubation 48, 72 and 168 hours, first value of 'from ... to'): 12.87 ng/ml of MMAE equivalent ADC | IC50, end of time course (NCI-H520; NCI-H520, longer incubation (up to 168 hours), last value of 'from ... to'): 5.24 ng/ml of MMAE equivalent ADC | decrease in IC50 between 48 and 72 hours (NCI-H358; NCI-H358): ~4 fold | toxicity, 24 hours treatment + 48 hours fresh media vs 72 hours treatment (NCI-H358; NCI-H358): no significant difference between the two treatment groups | normalized growth rate inhibition (GR) (NCI-H358; NCI-H358, higher concentrations of ADC, 60 hours): < 0 | IC50, start of time course (NCI-H358; NCI-H358, incubation 48, 72 and 120 hours, first value of 'from ... to'): 9.11 ng/ml of MMAE equivalent ADC | IC50, end of time course (NCI-H358; NCI-H358, longer incubation (up to 120 hours), last value of 'from ... to'): 8.69 ng/ml of MMAE equivalent ADC | fold differences in ADC and MMAE IC50s ([1]; FIG. 14): > 100 fold | fold difference in toxicity (AUC) between ADC and MMAE ([1]; FIG. 16): 1-3 fold | GR50 (NHLF): do not reach that value | difference between 48 and 72 hour IC50s (NHLF): almost identical | IC50 (NHLF; ADC prepared at 50° C.): 0.8 nM | IC50 (NHLF; ADC prepared at RT): 0.8 nM | IC50 (BEAS-2B; ADC prepared at 50° C.): 6.8 nM | IC50 (BEAS-2B; ADC prepared at RT): 5.3 nM | GR-based effect (BEAS-2B; at 60 hours): cytotoxic
